According to publication PMC4315173 (The Biochemical journal, 2014):

B1: PDE4D4 (natural protein, rat, UniProt P14270-5 1-803, looked up)
chain: MEAEGSSVPARAGSHEGSDSSGGAALKAPKHLWRHEQHHQYPLRQPQFRLLHPHHHLPPPPPPSPQPQLQPPPPPPLPPPPPPPGATRGRYASSGASRVRHRGYSDTERYLYCRAMDRTSYAVETGHRPGLKKSRMSWPSSFQGLRRFDVDNGTSAGRSPLDPMTSPGSGLILQANFVHSQRRESFLYRSDSDYDLSPKSMSRNSSIASDIHGDDLIVTPFAQVLASLRTVRNNFAALTNLQDRAPSKRSPMCNQPSINKATITEEAYQKLASETLEELDWCLDQLETLQTRHSVSEMASNKFKRMLNRELTHLSEMSRSGNQVSEYISNTFLDKQHEVEIPSPTQKEKEKKKRPMSQISGVKKLMHSSSLTNSCIPRFGVKTEQEDVLAKELEDVNKWGLHVFRIAELSGNRPLTVIMHTIFQERDLLKTFKIPVDTLITYLMTLEDHYHADVAYHNNIHAADVVQSTHVLLSTPALEAVFTDLEILAAIFASAIHDVDHPGVSNQFLINTNSELALMYNDSSVLENHHLAVGFKLLQEENCDIFQNLTKKQRQSLRKMAIDIVLATDMSKHMNLLADLKTMVETKKVTSSGVLLLDNYSDRIQVLQNMVHCADLSNPTKPLQLYRQWTDRIMEEFFRQGDRERERGMEISPMCDKHNASVEKSQVGFIDYIVHPLWETWADLVHPDAQDILDTLEDNREWYQSTIPQSPSPAPDDQEDGRQGQTEKFQFELTLEEDGESDTEKDSGSQVEEDTSCSDSKTLCTQDSESTEIPLDEQVEEEAVAEEESQPQTGVADDCCPDT
B2: PDE4D5 (natural protein, rat, UniProt P14270-8 1-745, looked up)
chain: MAQQTTSPDTLTVPEVDNPHVPNPWLNEDLVKSLRENLLQHEKSKTARKSVSPKLSPVISPRNSPRLLRRMLLSSNIPKQRRFTVAHTCFDVDNGTSAGRSPLDPMTSPGSGLILQANFVHSQRRESFLYRSDSDYDLSPKSMSRNSSIASDIHGDDLIVTPFAQVLASLRTVRNNFAALTNLQDRAPSKRSPMCNQPSINKATITEEAYQKLASETLEELDWCLDQLETLQTRHSVSEMASNKFKRMLNRELTHLSEMSRSGNQVSEYISNTFLDKQHEVEIPSPTQKEKEKKKRPMSQISGVKKLMHSSSLTNSCIPRFGVKTEQEDVLAKELEDVNKWGLHVFRIAELSGNRPLTVIMHTIFQERDLLKTFKIPVDTLITYLMTLEDHYHADVAYHNNIHAADVVQSTHVLLSTPALEAVFTDLEILAAIFASAIHDVDHPGVSNQFLINTNSELALMYNDSSVLENHHLAVGFKLLQEENCDIFQNLTKKQRQSLRKMAIDIVLATDMSKHMNLLADLKTMVETKKVTSSGVLLLDNYSDRIQVLQNMVHCADLSNPTKPLQLYRQWTDRIMEEFFRQGDRERERGMEISPMCDKHNASVEKSQVGFIDYIVHPLWETWADLVHPDAQDILDTLEDNREWYQSTIPQSPSPAPDDQEDGRQGQTEKFQFELTLEEDGESDTEKDSGSQVEEDTSCSDSKTLCTQDSESTEIPLDEQVEEEAVAEEESQPQTGVADDCCPDT
B3: PDE4A4 (natural protein, human, UniProt P27815-1 1-886, looked up)
chain: MEPPTVPSERSLSLSLPGPREGQATLKPPPQHLWRQPRTPIRIQQRGYSDSAERAERERQPHRPIERADAMDTSDRPGLRTTRMSWPSSFHGTGTGSGGAGGGSSRRFEAENGPTPSPGRSPLDSQASPGLVLHAGAATSQRRESFLYRSDSDYDMSPKTMSRNSSVTSEAHAEDLIVTPFAQVLASLRSVRSNFSLLTNVPVPSNKRSPLGGPTPVCKATLSEETCQQLARETLEELDWCLEQLETMQTYRSVSEMASHKFKRMLNRELTHLSEMSRSGNQVSEYISTTFLDKQNEVEIPSPTMKEREKQQAPRPRPSQPPPPPVPHLQPMSQITGLKKLMHSNSLNNSNIPRFGVKTDQEELLAQELENLNKWGLNIFCVSDYAGGRSLTCIMYMIFQERDLLKKFRIPVDTMVTYMLTLEDHYHADVAYHNSLHAADVLQSTHVLLATPALDAVFTDLEILAALFAAAIHDVDHPGVSNQFLINTNSELALMYNDESVLENHHLAVGFKLLQEDNCDIFQNLSKRQRQSLRKMVIDMVLATDMSKHMTLLADLKTMVETKKVTSSGVLLLDNYSDRIQVLRNMVHCADLSNPTKPLELYRQWTDRIMAEFFQQGDRERERGMEISPMCDKHTASVEKSQVGFIDYIVHPLWETWADLVHPDAQEILDTLEDNRDWYYSAIRQSPSPPPEEESRGPGHPPLPDKFQFELTLEEEEEEEISMAQIPCTAQEALTAQGLSGVEEALDATIAWEASPAQESLEVMAQEASLEAELEAVYLTQQAQSTGSAPVAPDEFSSREEFVVAVSHSSPSALALQSPLLPAWRTLSVSEHAPGLPGLPSTAAEVEAQREHQAAKRACSACAGTFGEDTSALPAPGGGGSGGDPT
B4: PDE4D3 (natural protein, UniProt P14270-1 1-672, looked up)
chain: MMHVNTFPFRRHSWICFDVDNGTSAGRSPLDPMTSPGSGLILQANFVHSQRRESFLYRSDSDYDLSPKSMSRNSSIASDIHGDDLIVTPFAQVLASLRTVRNNFAALTNLQDRAPSKRSPMCNQPSINKATITEEAYQKLASETLEELDWCLDQLETLQTRHSVSEMASNKFKRMLNRELTHLSEMSRSGNQVSEYISNTFLDKQHEVEIPSPTQKEKEKKKRPMSQISGVKKLMHSSSLTNSCIPRFGVKTEQEDVLAKELEDVNKWGLHVFRIAELSGNRPLTVIMHTIFQERDLLKTFKIPVDTLITYLMTLEDHYHADVAYHNNIHAADVVQSTHVLLSTPALEAVFTDLEILAAIFASAIHDVDHPGVSNQFLINTNSELALMYNDSSVLENHHLAVGFKLLQEENCDIFQNLTKKQRQSLRKMAIDIVLATDMSKHMNLLADLKTMVETKKVTSSGVLLLDNYSDRIQVLQNMVHCADLSNPTKPLQLYRQWTDRIMEEFFRQGDRERERGMEISPMCDKHNASVEKSQVGFIDYIVHPLWETWADLVHPDAQDILDTLEDNREWYQSTIPQSPSPAPDDQEDGRQGQTEKFQFELTLEEDGESDTEKDSGSQVEEDTSCSDSKTLCTQDSESTEIPLDEQVEEEAVAEEESQPQTGVADDCCPDT

Columns and labels:
[1] = target: endogenous PDE4D (mouse brain) (mouse (endogenous in brain)) (UniProt Q01063); assay: co-IP
[2] = target: the molecule itself; assay: SEC + other: sucrose density gradient centrifugation

endogenous PDE4D (mouse brain) (mouse (endogenous in brain)), sequence (Q01063 whole entry): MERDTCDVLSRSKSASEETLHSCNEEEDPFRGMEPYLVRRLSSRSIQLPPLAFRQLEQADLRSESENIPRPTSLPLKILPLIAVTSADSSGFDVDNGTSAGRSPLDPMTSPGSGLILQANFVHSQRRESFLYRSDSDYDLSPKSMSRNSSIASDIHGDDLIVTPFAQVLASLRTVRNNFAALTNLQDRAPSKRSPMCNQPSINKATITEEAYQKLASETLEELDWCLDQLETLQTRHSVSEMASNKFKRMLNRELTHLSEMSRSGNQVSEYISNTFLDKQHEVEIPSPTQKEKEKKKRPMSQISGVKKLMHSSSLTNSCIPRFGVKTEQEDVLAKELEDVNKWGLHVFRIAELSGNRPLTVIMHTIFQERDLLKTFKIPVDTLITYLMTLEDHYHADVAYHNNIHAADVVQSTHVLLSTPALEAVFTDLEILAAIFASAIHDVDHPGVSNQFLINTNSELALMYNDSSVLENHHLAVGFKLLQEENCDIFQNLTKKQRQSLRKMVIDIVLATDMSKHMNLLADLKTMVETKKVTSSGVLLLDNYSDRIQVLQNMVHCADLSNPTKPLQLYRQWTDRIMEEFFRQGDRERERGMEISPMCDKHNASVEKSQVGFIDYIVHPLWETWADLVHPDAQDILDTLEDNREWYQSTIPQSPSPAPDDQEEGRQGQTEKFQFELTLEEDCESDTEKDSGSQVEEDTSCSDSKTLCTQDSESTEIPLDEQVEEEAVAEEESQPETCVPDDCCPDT

Molecule | percent of the total PDE4A found in complex with PDE4D [1] | stoichiometry N [2]
endogenous long PDE4A variants (mouse brain) (from UniProt O89084 1-844) (natural protein) | 2% | 
B1 |  | 2
B2 |  | 2
B3 |  | 2
B4 |  | 2
